Among the data in the FLAb antibody collection (doi:10.7554/elife.23156) are Kd and yeast surface expression values, retold here.

The labels stand for the following.
B1: scFv; the commonest letter at each place (parent)
chain 1: EVKLDETGGGLVQPGRPMKLSCVASGFTFSDYWMNWVRQSPEKGLEWVAQIRNKPYNYETYYSDSVKGRFTISRDDSKSSVYLQMNNLRVEDMGIYYCTGSYYGMDYWGQGTSVTVS
chain 2: DVVMTQTPLSLPVSLGDQASISCRSSQSLVHSNGNTYLRWYLQKPGQSPKVLIYKVSNRFSGVPDRFSGSGSGTDFTLKISRVEAEDLGVYFCSQSTHVPWTFGGGTKLEIK

The variants in data set [1] derive from B1. Kind of data set: Kd (Tite-Seq). To be noted: with fluorescein; format: scFv 4-4-20, heavy + light.
Data set [2] covers variants of B1. Kind of data set: yeast surface expression (ratio to wild type); higher = more expressed. To be noted: format: scFv 4-4-20, heavy + light.

Some results are limits rather than exact numbers.

The term Kd denotes the concentration at which binding is half-saturated. Regarding chain 1 M34I W36M, the Kd in data set [1] amounted to 712 nM. For the same variant, the yeast surface expression in data set [2] came out at 0.783.
On the same counts, the results for chain 1 M34I W36S are at least 10000 nM and 0.556.
In the case of chain 1 M34H, in data set [1], the Kd was at least 10000 nM. For the same variant, the yeast surface expression in data set [2] is 0.737.
For chain 1 M34G, the Kd in data set [1] came to 1230 nM. Also, in data set [2], the yeast surface expression was 0.682.
For the variant chain 1 M34K, in data set [1], the dissociation constant Kd was 694 nM. In addition, the yeast surface expression in data set [2] is 0.913.
As for chain 1 M34I, the Kd in data set [1] stood at 2.73 nM. Also, in data set [2], the yeast surface expression is 0.873.
As for chain 1 M34S, the Kd in data set [1] is 151 nM. The yeast surface expression in data set [2] worked out at 0.652.
On the same counts, the results for chain 1 M34A are 8.26 nM and 0.783.
On the same counts, the results for chain 1 M34P are at least 10000 nM and 0.508.
On the same counts, the results for chain 1 M34Y are 10.7 nM and 1.05.
For the variant chain 1 M34N, in data set [1], the dissociation constant (Kd) stood at 2280 nM. In data set [2], the yeast surface expression is 0.695.
Turning to chain 1 M34C, the Kd in data set [1] is 3.26 nM. Further, the yeast surface expression in data set [2] was determined as 0.712.
On the same counts, the results for chain 1 M34D are at least 10000 nM and 0.406.
Take chain 1 M34V: in data set [1], the Kd was determined as 3.61 nM. For the same variant, the yeast surface expression in data set [2] was determined as 0.876.
Consider chain 1 M34W, for which the Kd in data set [1] amounted to 39.1 nM. In addition, in data set [2], the yeast surface expression came out at 0.869.
Turning to chain 1 M34L, the Kd in data set [1] was found to be 1.42 nM. The yeast surface expression in data set [2] worked out at 0.971.
On the same counts, the results for chain 1 M34E are at least 10000 nM and 0.617.
On the same counts, the results for chain 1 M34Q are 9500 nM and 0.801.
Take chain 1 M34F: the Kd in data set [1] turned out to be 2.26 nM. Moreover, the yeast surface expression in data set [2] is 0.988.
For the variant chain 1 M34T, the Kd in data set [1] is 2.93 nM. The yeast surface expression in data set [2] worked out at 0.777.
For chain 1 M34R, the Kd in data set [1] worked out at 9500 nM. Further, the yeast surface expression in data set [2] was determined as 0.851.
For chain 1 M34T V37C, in that order: 20 nM and 0.697.
For chain 1 M34A V37I, the Kd in data set [1] came to 495 nM. Besides, the yeast surface expression in data set [2] is 0.837.
With chain 1 M105N D106P, the Kd in data set [1] is at least 10000 nM. In addition, the yeast surface expression in data set [2] stood at 0.2.
On to chain 1 M34T N35D, for which the Kd in data set [1] was at least 10000 nM. In data set [2], the yeast surface expression was determined as 0.415.
For chain 1 M34C N35I, in that order: at least 10000 nM and 0.462.
For chain 1 M34G N35Q, in that order: at least 10000 nM and 0.503.
On the same counts, the results for chain 1 M34G N35P are 5370 nM and 0.778.
Consider chain 1 M34G N35H, for which the Kd in data set [1] is at least 10000 nM. Further, the yeast surface expression in data set [2] worked out at 0.394.
For the variant chain 1 M105P G109T, the Kd in data set [1] was at least 10000 nM. Also, the yeast surface expression in data set [2] is 0.291.
On the same counts, the results for chain 1 M105P G109I are at least 10000 nM and 0.208.
On the same counts, the results for chain 1 M34N N35V are at least 10000 nM and 0.505.
On the same counts, the results for chain 1 M34N N35H are 15.4 nM and 1.84.
As for chain 1 M105K Y107L G109V, the Kd in data set [1] was at least 10000 nM. Moreover, the yeast surface expression in data set [2] is 0.223.
For the variant chain 1 M105C W108M, in data set [1], the Kd was determined as 0.389 nM. For the same variant, in data set [2], the yeast surface expression was 0.656.
Take chain 1 M105Q G109H: the Kd in data set [1] was at least 10000 nM. Besides, the yeast surface expression in data set [2] amounted to 0.299.
On the same counts, the results for chain 1 M105Q G109W are at least 10000 nM and 0.115.
For the variant chain 1 M105Q G109M, the Kd in data set [1] is at least 10000 nM. For the same variant, the yeast surface expression in data set [2] is 0.216.
Regarding chain 1 M105Q G109Y, in data set [1], the Kd was at least 10000 nM. Besides, the yeast surface expression in data set [2] turned out to be 0.231.
For chain 1 M105C G109V, in that order: at least 10000 nM and 0.171.
Turning to chain 1 M34Y V37M, the Kd in data set [1] was 10.7 nM. For the same variant, the yeast surface expression in data set [2] is 0.807.
On the same counts, the results for chain 1 M34Y W36K are at least 10000 nM and 0.113.
For chain 1 M34Y W36V, in that order: at least 10000 nM and 0.522.
On the same counts, the results for chain 1 M105E D106Y are at least 10000 nM and 0.534.
As for chain 1 M105E D106C, the Kd in data set [1] is at least 10000 nM. Also, the yeast surface expression in data set [2] was 0.779.
On the same counts, the results for chain 1 M105C D106E are at least 10000 nM and 0.902.
On the same counts, the results for chain 1 M105C D106S are 3370 nM and 0.728.
For chain 1 M105P W108E G109W, the Kd in data set [1] is at least 10000 nM. The yeast surface expression in data set [2] is 0.297.
Take chain 1 M105Q Y107E W108T: the Kd in data set [1] was found to be 16.2 nM. In addition, the yeast surface expression in data set [2] stood at 0.548.
For chain 1 M105P Y107H, in data set [1], the equilibrium dissociation constant (Kd) is at least 10000 nM. The yeast surface expression in data set [2] came to 0.635.
On to chain 1 M34Q W36E, for which the Kd in data set [1] was at least 10000 nM. For the same variant, the yeast surface expression in data set [2] came to 2.19.
On the same counts, the results for chain 1 M105Q D106Q are at least 10000 nM and 1.01.
For chain 1 M105Q D106S, in that order: 80.8 nM and 1.17.
As to chain 1 M105T Y107R, the Kd in data set [1] is at least 10000 nM. For the same variant, the yeast surface expression in data set [2] is 0.527.
chain 1 M105T Y107D: the Kd in data set [1] was at least 10000 nM. For the same variant, the yeast surface expression in data set [2] is 0.467.
On the same counts, the results for chain 1 M105T Y107C are at least 10000 nM and 0.675.
On to chain 1 M105T Y107N, for which the Kd in data set [1] is at least 10000 nM. Moreover, the yeast surface expression in data set [2] was 0.778.
In the case of chain 1 M34C N35L V37F, the Kd in data set [1] stood at 65.7 nM. Further, the yeast surface expression in data set [2] worked out at 0.501.
